In paper PMC4768490 (Structure (London, England : 1993), 2015):

T1: Kap60 lacking the IBB (ΔIBB-Kap60) (S. cerevisiae, UniProt Q02821 88-509)
T1 sequence: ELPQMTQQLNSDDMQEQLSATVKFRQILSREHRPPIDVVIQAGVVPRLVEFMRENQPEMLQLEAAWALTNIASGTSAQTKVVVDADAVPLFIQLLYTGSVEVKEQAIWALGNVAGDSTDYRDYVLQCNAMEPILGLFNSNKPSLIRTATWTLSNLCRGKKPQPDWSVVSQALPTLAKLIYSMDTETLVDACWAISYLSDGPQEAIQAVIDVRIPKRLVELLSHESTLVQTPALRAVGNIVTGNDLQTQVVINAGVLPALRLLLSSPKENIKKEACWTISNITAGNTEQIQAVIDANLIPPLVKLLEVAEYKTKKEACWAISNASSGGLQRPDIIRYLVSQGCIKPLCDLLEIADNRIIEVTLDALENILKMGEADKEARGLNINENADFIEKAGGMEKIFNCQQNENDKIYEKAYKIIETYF


What follows are molecules tested against Kap60 lacking the IBB (ΔIBB-Kap60) (S. cerevisiae) (UniProt Q02821) (assay: ITC).

Kd [nM]	Molecule
46	nucleoplasmin bipartite NLS (NP-NLS), control (peptide)

Each molecule was assayed against T1, Kap60 lacking the IBB (ΔIBB-Kap60) (assay: ITC).

Molecule	Kd [nM]
MBP-tagged h1NLS (MBP-h1NLS), wild type (peptide, UniProt Q03707 171-221, looked up) DTRKKRKDPDSDDWSESNSKENKIDNKHLNLLSSDSEIEQDYQKAKKRKTS	30.5 ± 10
TNKRKREQISTDNEAKMQIQEEKSPKKKRKKRSSKANK (peptide, UniProt Q03281 100-137, looked up) [MBP-tagged h2NLS (MBP-h2NLS), wild type]	27.3 ± 8
TNKRKREQISTDNEAKMQIQEEKSPKAKRKKRSSKANK (peptide, UniProt Q03281 100-137, looked up) [MBP-h2NLS with Ala-mutation at position P2 (K126A)]	106 ± 15
TNKAKREQISTDNEAKMQIQEEKSPKAKRKKRSSKANK (peptide, UniProt Q03281 100-137, looked up) [MBP-h2NLS with Ala-mutations at positions P2' and P2 (R103A, K126A)]	168 ± 32
TNKAKREQISTDNEAKMQIQEEKSPKKKRKKRSSKANK (peptide, UniProt Q03281 100-137, looked up) [MBP-h2NLS with Ala-mutation at position P2' (R103A)]	132 ± 27

Continued, values first:

Kd [nM]	Molecule
68.6 ± 14	MBP-h1NLS with Ala-mutation at position P2 (K190A) (peptide, UniProt Q03707 171-221, looked up) DTRKKRKDPDSDDWSESNSAENKIDNKHLNLLSSDSEIEQDYQKAKKRKTS
123 ± 8.6	MBP-h1NLS with Ala-mutation at position P2' (R176A) (peptide, UniProt Q03707 171-221, looked up) DTRKKAKDPDSDDWSESNSKENKIDNKHLNLLSSDSEIEQDYQKAKKRKTS
140 ± 26	MBP-h1NLS with Ala-mutations at positions P2' and P2 (R176A, K190A) (peptide, UniProt Q03707 171-221, looked up) DTRKKAKDPDSDDWSESNSAENKIDNKHLNLLSSDSEIEQDYQKAKKRKTS

These molecules were tested against T1, Kap60 lacking the IBB (ΔIBB-Kap60) (assay: pull-down).

percent of the ΔIBB-Kap60:h2NLS complex dissociated at 10-fold excess of Nup2 [%]	Molecule
60	MBP-Nup2 (res. 1-51) (domain or fragment, S. cerevisiae, UniProt P32499 1-51, looked up) MAKRVADAQIQRETYDSNESDDDVTPSTKVASSAVMNRRKIAMPKRRMAFK
